The values below are quoted from earlier work in publication PMC8874714.

In the data set the target is CYP102A1 (Priestia megaterium) (UniProt P14779).

Consider CYP102A1 (from UniProt P14779), for which the Kd was 1.1 nM.
